The source of these data is EP1224288B1 (Pharis Biotec GmbH, dated 2006).

Experiment [1] concerns the target T1, chemokine receptor CCR1 (human, UniProt P32246 1-355).
T1 construct: whole, on cells
T1 sequence (looked up): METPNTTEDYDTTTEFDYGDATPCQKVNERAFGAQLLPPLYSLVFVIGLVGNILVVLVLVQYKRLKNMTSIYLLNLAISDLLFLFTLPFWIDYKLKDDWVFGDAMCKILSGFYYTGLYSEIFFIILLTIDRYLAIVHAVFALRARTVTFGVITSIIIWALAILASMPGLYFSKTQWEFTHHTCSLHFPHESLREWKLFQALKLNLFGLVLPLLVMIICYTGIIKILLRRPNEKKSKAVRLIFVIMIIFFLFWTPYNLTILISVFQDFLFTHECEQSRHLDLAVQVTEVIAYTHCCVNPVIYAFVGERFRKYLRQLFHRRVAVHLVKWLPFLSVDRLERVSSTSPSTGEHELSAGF
As to the kind of experiment: radioligand competition binding on CCR1.

For experiment [2], the target named is T1, chemokine receptor CCR1. As to the kind of experiment: cell-based or functional assay.
Experiment [3] addresses T2, chemokine receptor CCR3 (human, UniProt P51677 1-355).
T2 sequence (looked up): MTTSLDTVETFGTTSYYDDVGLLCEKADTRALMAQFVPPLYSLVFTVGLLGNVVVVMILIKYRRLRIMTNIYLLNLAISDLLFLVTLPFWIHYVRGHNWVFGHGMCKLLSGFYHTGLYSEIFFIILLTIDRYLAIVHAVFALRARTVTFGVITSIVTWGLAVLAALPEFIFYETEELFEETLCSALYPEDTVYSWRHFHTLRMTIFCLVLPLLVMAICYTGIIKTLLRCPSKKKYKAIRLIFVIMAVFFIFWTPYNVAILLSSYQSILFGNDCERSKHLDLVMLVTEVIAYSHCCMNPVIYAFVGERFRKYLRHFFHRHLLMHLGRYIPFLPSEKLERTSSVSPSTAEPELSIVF
As to the kind of experiment: cell-based or functional assay.

The target in experiment [4] is T3, chemokine receptor 5 (CCR5; AC P51681) (human, UniProt P51681 1-352). As to the kind of experiment: cell-based or functional assay.
T3 sequence (P51681 whole entry, one chain of several): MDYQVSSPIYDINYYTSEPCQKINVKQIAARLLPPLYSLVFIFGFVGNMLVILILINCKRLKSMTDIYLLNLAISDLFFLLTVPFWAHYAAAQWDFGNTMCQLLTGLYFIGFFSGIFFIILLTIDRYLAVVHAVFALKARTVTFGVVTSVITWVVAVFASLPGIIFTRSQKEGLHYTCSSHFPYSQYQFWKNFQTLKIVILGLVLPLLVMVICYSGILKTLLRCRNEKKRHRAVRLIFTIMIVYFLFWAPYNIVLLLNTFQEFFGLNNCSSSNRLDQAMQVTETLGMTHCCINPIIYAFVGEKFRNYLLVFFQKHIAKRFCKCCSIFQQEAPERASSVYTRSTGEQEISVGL
For experiment [5], the target named is T1, chemokine receptor CCR1. As to the kind of experiment: radioligand competition, 125I-Rantes tracer on CCR1.
Experiment [6] has as its target T2, chemokine receptor CCR3. As to the kind of experiment: radioligand competition, 125I-Eotaxin tracer on CCR3.
Experiment [7] concerns the target T3, chemokine receptor 5 (CCR5; AC P51681). As to the kind of experiment: radioligand competition, 125I-MIP 1-alpha tracer on CCR5.
In experiment [8] the target is T1, chemokine receptor CCR1. As to the kind of experiment: radioligand competition, 0.1 nM 125I-Rantes tracer, membranes of CHO-K1 cells expressing CCR1.
In experiment [9] the target is T2, chemokine receptor CCR3. As to the kind of experiment: radioligand competition, 0.1 nM 125I-Eotaxin tracer, membranes of CHO-K1 cells expressing CCR3.
Experiment [10] addresses T3, chemokine receptor 5 (CCR5; AC P51681). As to the kind of experiment: radioligand competition, 0.1 nM 125I-MIP 1-alpha tracer, membranes of CHO-K1 cells expressing CCR5.

B1: full size HCC-1 (HCC-1, residues 1-74) (ligand)
chain: TKTESSSRGPYHPSECCFTYTTYKIPRQRIMDYYETNSQCSKPGIVFITKRGHSVCTNPSDKWVQDYIKDMKEN
notes: also called full-length HCC-1; HCC-1, 1-74
On to B1, for which, in experiment [1], the affinity corresponds to a Ki of 100 nM.

B2: processed chemokine PHC-1 (HCC-1, residues 9-74) (ligand)
chain: GPYHPSECCFTYTTYKIPRQRIMDYYETNSQCSKPGIVFITKRGHSVCTNPSDKWVQDYIKDMKEN
notes: also called HCC-1[9-74]
B2: the “Aequorin assay, EC50” value is 2.8 nM in [2] and 78 nM in experiment [3]. The “Aequorin assay, activation of CCR5 transfected CHO-K1 cells, EC50” value (shortened to “Aequorin assay, activation”) in [4] was found to be 4.8 nM. For the same molecule, the Ki came to 0.023 nM in experiment [5], 2.7 nM in experiment [6] and 0.04 nM in experiment [7]. The results for the IC50 in experiment [8], in experiment [9] and in experiment [10] were 2.3 nM, 78 nM and 0.04 nM, respectively.

B3: RANTES (ligand, UniProt P13501 24-91, looked up)
chain: SPYSSDTTPCCFAYIARPLPRAHIKEYFYTSGKCSNPAVVFVTRKNRQVCANPEKKWVREYINSLEMS
modifications: also: 125I-labelled as tracer, position not given here
Consider B3, for which, in experiment [2], the “Aequorin assay, EC50” value was determined as 6.3 nM. Also, the “Aequorin assay, activation” value in experiment [4] stood at 2.4 nM.

B4: MIP 1-alpha (ligand, UniProt P10147 24-92, looked up)
chain: SLAADTPTACCFSYTSRQIPQNFIADYFETSSQCSKPGVIFLTKRSRQVCADPSEEWVQKYVSDLELSA
modifications: also: 125I-labelled as tracer, position not given here
For the molecule B4, the “Aequorin assay, activation” value in [4] worked out at 3.3 nM.
